Where a chain is given by its changes, count along the chain named.
B1: 278 (protein)
chain: STAIAQEGAAPAAMLHPEKWPRPATQRLIDPAVEKRVDALLKQLSVEEKVGQVIQGDIGTITPEDLRKYPLGSILAGGDSGPNGDDRAPPKEWLDLADAFYRVSLEKRPGHTPIPVLFGIDAVHGHGNIGSATIFPHNIALGMTRDPELLRRIGEVTAEEMAATGIDWTFAPALSVVRDDRWGRTYEGFSEDPEIVASYSPAIVEGVQGKYGSKDFMAPGRIVASAKHFLADGGTDQGRDQGDARISEDELIRIHNAGYPPAIDAGVLTVMASFSSWQGIKHHGHKQLLTDVLKGQMGFNGFIVGDWNAHDQVPGCTKFNCPTSLIAGLDMYMAADSWKQLYENTLAQVKDGTIPMARLDDAVRRILRVKVLAGLFEKPAPKDRPGLPGLETLGSPEHRAVGREAVRKSLVLLKNDKGTLPLSPKARVLVAGDGADNIGKQSGGWTISWQGTGNRNDEFPGATSILGGIRDAVADAGGSVEFDVAGQYKTKPDVAIVVFGEEPYAEFRGDVETLEYQPDQKQDLTLLKKLKDQGIPVVAVFLSGRPMWVNPELNASDAFVAAWLPGTEGGGVADVLFTDKAGKVQHDFAGKLSYSWPRTAAQTTVNRGDADYNPLFAYGYGLTYKDRSKVGTLPEESGVPAEARQN
B2: 213 (protein)
chain: STAIAQEGAGPAAILHPEKWPRPATQRLIDPAVEKRVDALLKQLSVEEKVGQVIQGDIGTITPEDLRKYPLGSILAGGDSGPNGDDRAPPKEWLDLADAFYRVSLEKRPGHTPIPVLFGIDAVHGHGNIGSATIFPHNIALGMTRDPELLRRIGEVTAEEMAATGIDWTFAPALSVVRDDRWGRTYEGFSEDPEIVASYSAAIVEGVQGKYGSKDFMAPGRIVASAKHFLADGGTDQGRDQGDARISEDELIRIHNAGYPPAIDAGVLTVMASFSSWQGIKHHGHKQLLTDVLKGQMGFNGFIVGDWNAHDQVPGCTKFNCPTSLIAGLDMYMAADSWKQLYENTLAQVKDGTIPMARLDDAVRRILRVKVLAGLFEKPAPKDRPGLPGLETLGSPEHRAVGREAVRKSLVLLKNDKGTLPLSPKARVLVAGDGADNIGKQSGGWTISWQGTGNRNDEFPGATSILGGIRDAVADAGGSVEFDVAGQYKTKPDVAIVVFGEEPYAEFQGDVETLEYQPDQKQDLALLKKLKDQGIPVVAVFLSGRPMWVNPELNASDAFVAAWLPGTEGGGVADVLFTDKAGKVQHDFAGKLSYSWPRTAAQTTVNRGDADYNPLFAYGYGLTYKDKSKVGTLPEESGVP
B3: 283 (protein)
chain: B2 chain with G10A, V371M
B4: 284 (protein)
chain: STAIAQEGAAPAAILHPEKWPRPATQRLIDPAVEKRVDALLKQLSVEEKVGQVIQGDIGTITPEDLRKYPLGSILAGGDSGPNGDDRAPPKEWLDLADAFYRVSLEKRPGHTPIPVLFGIDAVHGHGNIGSATIFPHNIALGMTRDPELLRRIGEVTAEEMAATGIDWTFAPALSVVRDDRWGRTYEGFSEDPEIVASYSAAIVEGVQGKYGSKDFMAPGRIVASAKHFLADGGTDQGRDQGDARISEDELIRIHNAGYPPAIDAGVLTVMASFSSWQGIKHHGHKQLLTDVLKGQMRFNGFIVGDWNAHEQVPGCTKFNCPTSLIAGLDMYMAADSWKQLYENTLAQVKDGTIPMARLDDAVRRILRVKVLAGLFEKPAPKDRPGLPGLETLGSPEHRAVGREAVRKSLVLLKNDKGTLPLSPKARVLVAGDGADNIGKQSGGWTISWQGTGNRNDEFPGATSILGGIRDAVADAGGSVEFDVAGQYKTKPDVAIVVFGEEPYAEFQGDVETLEYQPDQKQDLALLKKLKDQGIPVVAVFLSGRPMWVNPELNASDAFVAAWLPGTEGGGVADVLFTDKAGKVQHDFAGKLSYSWPRTAAQTTVNRGDADYNPLFAYGYGLTYKDKSKVGTLPEESGVPAEARQNAGIYFRAGALRLPGRFL
B5: 282 (protein)
chain: B4 chain with I246C, R298G, E311D
B6: 133 (protein)
chain: B4 chain with N128K, F135L, E159V, A162T, A173C, Y211F, P219V, R298G, E311D
B7: 124 (protein)
chain: B4 chain with M143A, D146S, S198A, A201P, S225C, R298G, E311D, K339R
B8: 128 (protein)
chain: B4 chain with N128K, S198A, A201P, S225C, R298G, E311D
B9: 129 (protein)
chain: B4 chain with M143A, A162T, S198A, A201P, Y211F, S225C, R298G, E311D, I535V
B10: 126 (protein)
chain: B4 chain with E159V, A162T, S198A, A201P, Y211F, S225C, R298G, E311D, Q585R
B11: 127 (protein)
chain: B4 chain with M143A, D146S, E159V, S198A, A201P, I222S, S225C, R298G, E311D
B12: 132 (protein)
chain: STAIAQEGAAPAAILHPEKWPRPATQRLIDPAVEKRVDALLKQLSVEEKVGQVIQGDIGTITPEDLRKYPLGSILAGGDSGPNGDDRAPPQEWLDLADAFYRVSLEKRPGHTPIPVLFGIDAVHGHGKIGSATIFPHNIALGATRSPELLRRIGEVTAVEMAATGIDWTFAPALSVVRDDRWGRTYEGFSEDPEIVAAYSPAIVEGVQGKYGSKDFMAPGRAVACAKHFLADGGTDQGRDQGDARISEDELIRIHNAGYPPAIDAGVLTVMASFSSWQGIKHHGHKQLLTDVLKGQMGFNGFIVGDWNAHDQVPGCTKFNCPTSLIAGLDMYMAADSWKQLYENTLAQVKDGTIPMARLDDAVRRILRVKVLAGLFEKPAPKDRPGLPGLETLGSPEHRAVGREAVRKSLVLLKNDKGTLPLSPKARVLVAGDGADNIGKQSGGWTISWQGTGNRNDEFPGATSILGGIRDAVADAGGSVEFDVAGQYKTKPDVAIVVFGEEPYAEFQGDVETLEYQPDQKQDLALLKKLKDQGIPVVAVFLSGRPMWVNPELNASDAFVAAWLPGTEGGGVADVLFTDKAGKVQHDFAGKLSYSWPRTAAQTTVNRGDADYNPLFAYGYGLTYKDKSKVGTLPEESGVPAEARQNAGIYFRAGALRLPGRFL
B13: 130 (protein)
chain: B4 chain with A24V, D79N, S198A, A201P, I222S, S225C, R298G, E311D
B14: 131 (protein)
chain: B4 chain with D79N, N128K, M143A, A173C, S198A, Y211F, R298G, E311D
B15: 125 (protein)
chain: B12 chain with D79N, Q91K, K128N, S146D, Y211F, A222S

Assay: High throughput cellobiose assay: fold improvement in cellobiase activity of CelA variants over a control enzyme (Tables 2A-2D, 3, 5, 6, 7)
Assay type: biochemical
Conditions: 3.3 g/l cellobiose, 55° C. and pH 5.3 (incubation overnight)

Molecule	Fold improvement over Control Variant No. 94 from Table 2B
B1	++++ (++++ = 1.1 to 1.5 fold improvement over Control No. 3, Variant No. 94)
B2	++++ (++++ = 1.1 to 1.5 fold improvement over Control No. 3, Variant No. 94)
B3	++++ (++++ = 1.1 to 1.5 fold improvement over Control No. 3, Variant No. 94)
B4	++++ (++++ = 1.1 to 1.5 fold improvement over Control No. 3, Variant No. 94)
B5	++++ (++++ = 1.1 to 1.5 fold improvement over Control No. 3, Variant No. 94)

Same assay, conditions: 3.3 g/l cellobiose, 55° C. and pH 6.0

Molecule	Fold improvement over Control Variant No. 5 from Table 2A
B6	++ (++ = 1.1 to 6 fold improvement over control Variant No. 2)
B7	+++ (+++ = 6 to 13 fold improvement over control Variant No. 2)
B8	+++ (+++ = 6 to 13 fold improvement over control Variant No. 2)
B9	+++ (+++ = 6 to 13 fold improvement over control Variant No. 2)
B10	++ (++ = 1.1 to 6 fold improvement over control Variant No. 2)
B11	+++ (+++ = 6 to 13 fold improvement over control Variant No. 2)
B12	+++ (+++ = 6 to 13 fold improvement over control Variant No. 2)
B13	+++ (+++ = 6 to 13 fold improvement over control Variant No. 2)
B14	++ (++ = 1.1 to 6 fold improvement over control Variant No. 2)
B15	+++ (+++ = 6 to 13 fold improvement over control Variant No. 2)
